Test results: IntAct's records for PubMed 29892012

B1: E3 ubiquitin-protein ligase LNX (Homo sapiens), Q8TBB1 (parent)
chain: MNQPESANDPEPLCAVCGQAHSLEENHFYSYPEEVDDDLICHICLQALLDPLDTPCGHTYCTLCLTNFLVEKDFCPMDRKPLVLQHCKKSSILVNKLLNKLLVTCPFREHCTQVLQRCDLEHHFQTSCKGASHYGLTKDRKRRSQDGCPDGCASLTATAPSPEVSAAATISLMTDEPGLDNPAYVSSAEDGQPAISPVDSGRSNRTRARPFERSTIRSRSFKKINRALSVLRRTKSGSAVANHADQGRENSENTTAPEVFPRLYHLIPDGEITSIKINRVDPSESLSIRLVGGSETPLVHIIIQHIYRDGVIARDGRLLPGDIILKVNGMDISNVPHNYAVRLLRQPCQVLWLTVMREQKFRSRNNGQAPDAYRPRDDSFHVILNKSSPEEQLGIKLVRKVDEPGVFIFNVLDGGVAYRHGQLEENDRVLAINGHDLRYGSPESAAHLIQASERRVHLVVSRQVRQRSPDIFQEAGWNSNGSWSPGPGERSNTPKPLHPTITCHEKVVNIQKDPGESLGMTVAGGASHREWDLPIYVISVEPGGVISRDGRIKTGDILLNVDGVELTEVSRSEAVALLKRTSSSIVLKALEVKEYEPQEDCSSPAALDSNHNMAPPSDWSPSWVMWLELPRCLYNCKDIVLRRNTAGSLGFCIVGGYEEYNGNKPFFIKSIVEGTPAYNDGRIRCGDILLAVNGRSTSGMIHACLARLLKELKGRITLTIVSWPGTFL
partner: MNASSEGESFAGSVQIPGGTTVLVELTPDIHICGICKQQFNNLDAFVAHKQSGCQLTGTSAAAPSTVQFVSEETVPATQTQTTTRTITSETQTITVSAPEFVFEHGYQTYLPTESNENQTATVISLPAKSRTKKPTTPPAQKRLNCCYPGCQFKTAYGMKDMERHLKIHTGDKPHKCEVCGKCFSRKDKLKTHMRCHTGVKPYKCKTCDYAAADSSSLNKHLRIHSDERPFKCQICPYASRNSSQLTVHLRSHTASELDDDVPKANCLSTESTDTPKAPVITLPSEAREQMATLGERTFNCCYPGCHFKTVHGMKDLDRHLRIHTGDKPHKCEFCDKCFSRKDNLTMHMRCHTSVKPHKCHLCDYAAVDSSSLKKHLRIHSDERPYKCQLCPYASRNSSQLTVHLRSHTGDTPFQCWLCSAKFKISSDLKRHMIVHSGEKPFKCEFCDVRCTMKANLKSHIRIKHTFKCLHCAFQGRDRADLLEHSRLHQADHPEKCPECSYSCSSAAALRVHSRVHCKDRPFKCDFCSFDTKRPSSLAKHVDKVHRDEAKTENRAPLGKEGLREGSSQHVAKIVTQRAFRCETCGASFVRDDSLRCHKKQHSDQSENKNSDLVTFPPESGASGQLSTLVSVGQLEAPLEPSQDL
B2: E3 ubiquitin-protein ligase LNX (Homo sapiens), Q8TBB1 (parent)
chain: B1 chain
partner: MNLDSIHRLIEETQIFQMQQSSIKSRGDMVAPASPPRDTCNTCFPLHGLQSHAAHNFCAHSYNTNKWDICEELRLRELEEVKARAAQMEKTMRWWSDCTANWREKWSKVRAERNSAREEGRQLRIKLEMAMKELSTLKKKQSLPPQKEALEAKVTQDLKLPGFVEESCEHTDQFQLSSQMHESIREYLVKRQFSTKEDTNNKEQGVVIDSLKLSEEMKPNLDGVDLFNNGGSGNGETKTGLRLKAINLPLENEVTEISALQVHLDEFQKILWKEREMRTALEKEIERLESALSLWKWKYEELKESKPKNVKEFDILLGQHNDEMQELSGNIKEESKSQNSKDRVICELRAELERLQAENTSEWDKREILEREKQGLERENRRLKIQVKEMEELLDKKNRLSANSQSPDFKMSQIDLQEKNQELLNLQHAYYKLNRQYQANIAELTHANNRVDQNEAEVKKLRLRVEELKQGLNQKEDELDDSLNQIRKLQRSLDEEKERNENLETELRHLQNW
B3: E3 ubiquitin-protein ligase LNX (Homo sapiens), Q8TBB1 (parent)
chain: B1 chain
partner: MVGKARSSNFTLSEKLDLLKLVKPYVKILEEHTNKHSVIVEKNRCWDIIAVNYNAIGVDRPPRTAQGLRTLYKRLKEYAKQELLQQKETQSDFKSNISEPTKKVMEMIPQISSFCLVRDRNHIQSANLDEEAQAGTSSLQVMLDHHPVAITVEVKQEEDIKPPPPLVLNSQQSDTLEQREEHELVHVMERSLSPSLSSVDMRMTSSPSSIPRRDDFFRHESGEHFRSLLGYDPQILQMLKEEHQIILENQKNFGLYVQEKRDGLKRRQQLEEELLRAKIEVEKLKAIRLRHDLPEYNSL
B4: E3 ubiquitin-protein ligase LNX (Homo sapiens), Q8TBB1 (parent)
chain: B1 chain
partner: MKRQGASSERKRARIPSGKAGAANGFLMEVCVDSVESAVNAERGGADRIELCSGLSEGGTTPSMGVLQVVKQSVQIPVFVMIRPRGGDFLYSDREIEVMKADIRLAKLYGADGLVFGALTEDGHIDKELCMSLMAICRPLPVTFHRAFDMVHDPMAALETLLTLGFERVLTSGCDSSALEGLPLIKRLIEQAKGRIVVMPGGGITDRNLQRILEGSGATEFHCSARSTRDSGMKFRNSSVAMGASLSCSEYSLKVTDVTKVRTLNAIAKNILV
B5: E3 ubiquitin-protein ligase LNX (Homo sapiens), Q8TBB1 (parent)
chain: B1 chain
partner: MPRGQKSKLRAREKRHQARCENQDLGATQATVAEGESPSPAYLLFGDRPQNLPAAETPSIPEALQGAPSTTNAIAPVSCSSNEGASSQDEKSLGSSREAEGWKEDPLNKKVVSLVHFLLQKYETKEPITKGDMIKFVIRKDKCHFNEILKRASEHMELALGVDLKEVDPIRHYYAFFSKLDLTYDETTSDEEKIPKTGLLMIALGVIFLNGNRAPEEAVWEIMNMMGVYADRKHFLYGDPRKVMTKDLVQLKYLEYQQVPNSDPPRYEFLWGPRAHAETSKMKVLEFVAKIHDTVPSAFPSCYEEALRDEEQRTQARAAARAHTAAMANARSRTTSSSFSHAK

Variants of: B1
Settings: with zf64b_human ZFP64, Q9NTW7

Row | Variant | effect of a mutation on the interaction
1 | E295K | disrupting interaction strength

Variants of: B2
Settings: with CCDC102B

Row | Variant | effect of a mutation on the interaction
2 | E295K | disrupting interaction strength

Variants of: B3
Settings: with fsbp_human FSBP

Row | Variant | effect of a mutation on the interaction
3 | E295K | disrupting interaction strength

Variants of: B4
Settings: with cutc_human CUTC

Row | Variant | effect of a mutation on the interaction
4 | E295K | disrupting interaction strength

Variants of: B5
Settings: with magbi_human MAGEB18, Q96M61

Row | Variant | effect of a mutation on the interaction
5 | E295K | disrupting interaction strength
